# In patent publication CN110407938A (BEIJING JOINN BIOTECHNOLOGY CO LTD, dated 2019):
# Biological target: T1, TIM-3 (分析物, SPR analyte)
# T1 construct: also called TIM-3抗原; 分析物(TIM-3)
# Assay: SPR (Biacore T200), 25°C; antibody captured by anti-human IgG Fc on a CM5 chip, TIM-3 as analyte at 0-100 nM, 1:1 binding model
# T1 sequence (Q8TDQ0 22-202): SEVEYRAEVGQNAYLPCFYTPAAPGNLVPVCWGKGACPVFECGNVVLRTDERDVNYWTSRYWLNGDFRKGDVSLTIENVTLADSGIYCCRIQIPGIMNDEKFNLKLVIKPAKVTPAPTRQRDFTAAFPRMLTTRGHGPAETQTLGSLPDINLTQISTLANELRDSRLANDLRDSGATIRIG
binder,measurement,value
"抗TIM-3抗体 (anti-TIM-3 monoclonal antibody of the invention) (antibody, V domains shown, The variable regions were cloned into the ZY-CDMO vector and expressed in CHO cells; The antibody was purified on Protein A, captured by an anti-human IgG Fc antibody and detected with goat anti-human-HRP, so it carries a human IgG Fc; It came from a phage antibody library; also called 抗TIM-3单克隆抗体; 本发明抗TIM-3抗体) VH: QVQLQESGPGLVKPGETLSLTCAVSGGSFSRGGYYWNWIRQPPGKGLEWIGYIYYSGSTNYNPSLKSRVTISLDTSKNQFSLKLSSVTAEDTAVYYCARDHYTSSYNYDYWGQGTLVTVSS VL: EIVLTQSPATLSLSPGERATLSCRASESVQSYIAWYQQKPGQAPRLLIYNASQRSTGIPARFSGSGSGTDFTLTISSLEPEDFAVYYCQQRFSWPPTFGQGTKLEIK",Kd,6.41 nM
